Blank lines part the entries; values can stand above or below the binder they belong to.
How the values were obtained:
[1] = target: T1, PKC-ε (endogenous, human cell extracts) (human, UniProt Q02156 1-737); assay: Protocol B blot competition, IMR-32 extract, competitor anti-PKC-ε Ab, Band 2; PRE 20 µg
T1 construct: Two bands on the blot, said to be alternate splicing variants; also called PKC-epsilon; PKC-ε Band 1
T1 sequence (looked up): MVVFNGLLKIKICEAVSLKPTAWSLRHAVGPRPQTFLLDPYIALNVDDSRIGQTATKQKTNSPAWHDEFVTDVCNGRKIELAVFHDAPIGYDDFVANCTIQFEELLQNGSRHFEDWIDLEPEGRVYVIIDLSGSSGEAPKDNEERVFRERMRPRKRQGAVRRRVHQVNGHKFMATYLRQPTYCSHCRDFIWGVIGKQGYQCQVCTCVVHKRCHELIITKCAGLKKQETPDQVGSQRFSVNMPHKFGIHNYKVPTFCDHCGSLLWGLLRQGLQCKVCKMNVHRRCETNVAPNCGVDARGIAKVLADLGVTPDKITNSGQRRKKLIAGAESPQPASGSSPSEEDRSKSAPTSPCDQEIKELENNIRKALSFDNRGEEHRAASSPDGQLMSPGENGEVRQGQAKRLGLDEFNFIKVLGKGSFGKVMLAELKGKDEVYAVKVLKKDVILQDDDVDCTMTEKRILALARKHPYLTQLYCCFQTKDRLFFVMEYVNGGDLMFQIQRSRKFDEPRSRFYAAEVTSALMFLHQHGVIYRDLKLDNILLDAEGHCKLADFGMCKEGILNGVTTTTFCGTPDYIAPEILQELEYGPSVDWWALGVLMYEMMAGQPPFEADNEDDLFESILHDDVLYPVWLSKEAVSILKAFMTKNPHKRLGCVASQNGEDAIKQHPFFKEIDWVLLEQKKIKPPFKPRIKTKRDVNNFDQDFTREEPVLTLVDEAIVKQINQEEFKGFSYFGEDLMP
Method: The ability of the peptides PRE 2 and PRE 3 (see Table 3) to interfere with the binding of a PKC-α-specific polyclonal antibody (Santa Cruz Biotechnology, Inc.) to PKC-α was determined using a modified version of the protocol outlined above in which the test peptide was added directly to the cell extract prior to electrophoresis at a concentration of either 5× or 15× the concentration of the protein applied to each well of the gel for the Western blots (20 μg).
Peptides PRE 2, PRE 3 and PRE 4 (see Table 3) were tested for their ability to interfere with the binding of isoform-specific polyclonal antibodies (Santa Cruz Biotechnology, Inc.) to PKC-ε using the general protocol described in Example 3. Two bands, representing alternate splicing variants of PKC-ε, were identified on the Western blot using this anti-PKC-ε antibody.

[2] = target: T2, PKC-ι (endogenous, human cell extracts) (human, UniProt P41743 2-596); assay: Western-blot competition on cell extracts against the anti-PKC-ι primary antibody; peptide at 10X and 20X the antibody concentration; band densitometry (lower band = peptide bound)
T2 construct: also called PKC-iota
T2 sequence (looked up): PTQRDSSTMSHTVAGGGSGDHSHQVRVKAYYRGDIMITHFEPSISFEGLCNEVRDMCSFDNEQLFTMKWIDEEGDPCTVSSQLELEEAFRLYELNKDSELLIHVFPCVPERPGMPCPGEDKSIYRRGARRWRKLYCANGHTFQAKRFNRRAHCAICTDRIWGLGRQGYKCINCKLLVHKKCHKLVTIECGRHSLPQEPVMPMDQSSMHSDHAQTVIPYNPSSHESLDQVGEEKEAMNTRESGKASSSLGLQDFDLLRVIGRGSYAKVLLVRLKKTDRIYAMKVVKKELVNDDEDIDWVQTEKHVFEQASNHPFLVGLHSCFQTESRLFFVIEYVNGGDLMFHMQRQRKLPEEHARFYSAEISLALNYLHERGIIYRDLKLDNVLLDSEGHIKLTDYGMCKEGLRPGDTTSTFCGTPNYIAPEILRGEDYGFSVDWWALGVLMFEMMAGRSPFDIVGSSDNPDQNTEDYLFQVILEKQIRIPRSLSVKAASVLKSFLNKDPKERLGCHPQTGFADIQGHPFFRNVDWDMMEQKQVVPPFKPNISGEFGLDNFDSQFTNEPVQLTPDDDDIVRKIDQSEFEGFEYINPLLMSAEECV
Method: Binding efficiency and specificity of the peptides PRE 2, 3, 4, 5, 6, 7, 8, 9, 10, 11, 12 and 13 (see Table 3) was also tested using cytoplasmic extracts from different cell lines expressing appropriate PKC isoforms as described for Example 1. Briefly, the protein cytoplasmic extracts were separated by electrophoresis and transferred onto nitrocellulose membranes by standard Western blotting procedures. The bands on the Western blots were detected with matching primary antibodies and alkaline phosphatase conjugated secondary antibody. The bands were then scanned and the relative density measurements obtained.
This procedure to assess the binding characteristics of the PREs is based on competition binding of the PRE with the primary anti-isoform PKC specific antibodies. The lower the measured band density, the greater the binding of the PRE to the PKC isoform. The PREs were added at 10 and 20 times (10×, 20×) the primary antibody concentration, according to classical competition between antigenic peptide and primary antibody. The following cell lines (obtained from the ATCC) were used: H661—NCI human lung carcinoma NSCLC; MDAMB231—human highly invasive breast cancer cell line from pleural effusion; LS180—human colon adenocarcinoma; LnCAP—human prostate adenocarcinoma; CCD16Lu—human lung fibroblasts; Du145—human prostate carcinoma brain metastasis, and T24—human bladder carcinoma.

[3] = target: T3, PKC-ζ (endogenous, human cell extracts) (human, UniProt Q05513 1-592); assay: Western-blot competition on cell extracts against the anti-PKC-ζ primary antibody; band densitometry
T3 construct: also called PKC-zeta
T3 sequence (looked up): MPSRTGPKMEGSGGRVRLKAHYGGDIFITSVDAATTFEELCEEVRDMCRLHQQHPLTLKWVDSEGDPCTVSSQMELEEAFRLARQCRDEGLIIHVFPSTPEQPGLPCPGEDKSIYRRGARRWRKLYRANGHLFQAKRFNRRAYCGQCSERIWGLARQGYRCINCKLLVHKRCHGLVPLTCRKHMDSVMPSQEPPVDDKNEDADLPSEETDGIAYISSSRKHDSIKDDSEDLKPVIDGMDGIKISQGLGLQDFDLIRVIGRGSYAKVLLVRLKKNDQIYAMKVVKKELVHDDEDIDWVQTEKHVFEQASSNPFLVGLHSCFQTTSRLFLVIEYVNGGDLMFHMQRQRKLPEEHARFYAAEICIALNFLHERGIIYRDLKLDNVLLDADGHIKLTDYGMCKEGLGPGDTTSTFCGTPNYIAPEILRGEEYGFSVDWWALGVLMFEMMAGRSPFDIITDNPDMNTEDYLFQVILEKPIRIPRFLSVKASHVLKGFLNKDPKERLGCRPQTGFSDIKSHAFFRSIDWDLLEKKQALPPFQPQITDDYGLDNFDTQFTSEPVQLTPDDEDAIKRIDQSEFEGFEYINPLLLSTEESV

- band intensity [1]: 153
- inhibition (%) [1]: 46.6%
- relative intensity (%) [1]: 53.3%
- binding result [2]: binds
B1: PRE 4 (peptide)
peptide: Ac-KDAQNLIGISI-NH2
notes: Synthetic peptide; also called peptide PRE 4

B2: PRE 11 (peptide)
peptide: Ac-RDAQNLIGISI-NH2
notes: Synthetic peptide; also called peptide PRE 11
- binding result [3]: no binding (tested: 20X the primary antibody concentration)

- band intensity [1]: 0
- inhibition (%) [1]: 100%
- relative intensity (%) [1]: 0%
- binding result [2]: binds
B3: PRE 3 (peptide)
peptide: Ac-AKGIQEVKGGDAQNLIGISI-NH2
notes: Synthetic peptide; also called peptide PRE 3

Source: patent publication US20100041597A1 (published 2010)
